Assay results: patent US20160319032A1

Experiments:
[1] = biological target: cynomolgus β6 on transfected HEK-293 cells (cynomolgus); experiment: FACS, purified mAb, transfected HEK-293 (parental: 2)
[2] = biological target: mouse αVβ6 on cells (mouse) (UniProt P43406); experiment: FACS, purified mAb, transfected HEK-293 (parental: 74)
[3] = biological target: mouse αVβ6 on cells (mouse) (UniProt P43406); experiment: FACS, K562 cells expressing mouse αVβ6 (parental K562: 33)

Chain of mouse αVβ6 on cells (mouse) (P43406 31-1044, chain 1 of 2): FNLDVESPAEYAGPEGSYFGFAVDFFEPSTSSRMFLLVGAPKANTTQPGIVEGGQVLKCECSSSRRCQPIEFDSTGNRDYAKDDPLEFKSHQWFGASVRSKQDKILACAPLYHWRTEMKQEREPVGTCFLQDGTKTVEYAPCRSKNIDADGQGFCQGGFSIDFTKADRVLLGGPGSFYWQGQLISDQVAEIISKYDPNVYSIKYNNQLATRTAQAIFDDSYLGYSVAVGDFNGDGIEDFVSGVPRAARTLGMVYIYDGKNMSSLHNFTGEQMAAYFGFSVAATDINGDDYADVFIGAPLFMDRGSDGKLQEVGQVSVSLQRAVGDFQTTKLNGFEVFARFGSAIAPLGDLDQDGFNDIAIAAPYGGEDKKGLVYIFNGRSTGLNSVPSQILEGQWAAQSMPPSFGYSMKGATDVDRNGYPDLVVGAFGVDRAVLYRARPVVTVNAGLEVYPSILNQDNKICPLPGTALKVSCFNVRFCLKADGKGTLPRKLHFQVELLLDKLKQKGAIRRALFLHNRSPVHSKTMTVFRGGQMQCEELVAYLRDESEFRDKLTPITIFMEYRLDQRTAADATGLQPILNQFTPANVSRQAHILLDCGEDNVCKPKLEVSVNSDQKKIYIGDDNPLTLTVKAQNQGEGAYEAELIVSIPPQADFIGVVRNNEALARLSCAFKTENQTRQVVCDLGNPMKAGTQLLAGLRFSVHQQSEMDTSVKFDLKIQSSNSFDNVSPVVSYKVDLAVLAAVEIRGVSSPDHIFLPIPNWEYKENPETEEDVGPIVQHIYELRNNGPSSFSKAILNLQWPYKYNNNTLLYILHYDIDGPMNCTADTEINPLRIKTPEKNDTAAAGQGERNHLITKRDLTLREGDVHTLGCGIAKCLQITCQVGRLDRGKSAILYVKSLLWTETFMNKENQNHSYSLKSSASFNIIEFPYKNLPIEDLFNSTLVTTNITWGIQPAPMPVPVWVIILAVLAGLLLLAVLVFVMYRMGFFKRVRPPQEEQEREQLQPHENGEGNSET
Chain of mouse αVβ6 on cells (mouse) (Q9Z0T9 22-787, chain 2 of 2, further chain): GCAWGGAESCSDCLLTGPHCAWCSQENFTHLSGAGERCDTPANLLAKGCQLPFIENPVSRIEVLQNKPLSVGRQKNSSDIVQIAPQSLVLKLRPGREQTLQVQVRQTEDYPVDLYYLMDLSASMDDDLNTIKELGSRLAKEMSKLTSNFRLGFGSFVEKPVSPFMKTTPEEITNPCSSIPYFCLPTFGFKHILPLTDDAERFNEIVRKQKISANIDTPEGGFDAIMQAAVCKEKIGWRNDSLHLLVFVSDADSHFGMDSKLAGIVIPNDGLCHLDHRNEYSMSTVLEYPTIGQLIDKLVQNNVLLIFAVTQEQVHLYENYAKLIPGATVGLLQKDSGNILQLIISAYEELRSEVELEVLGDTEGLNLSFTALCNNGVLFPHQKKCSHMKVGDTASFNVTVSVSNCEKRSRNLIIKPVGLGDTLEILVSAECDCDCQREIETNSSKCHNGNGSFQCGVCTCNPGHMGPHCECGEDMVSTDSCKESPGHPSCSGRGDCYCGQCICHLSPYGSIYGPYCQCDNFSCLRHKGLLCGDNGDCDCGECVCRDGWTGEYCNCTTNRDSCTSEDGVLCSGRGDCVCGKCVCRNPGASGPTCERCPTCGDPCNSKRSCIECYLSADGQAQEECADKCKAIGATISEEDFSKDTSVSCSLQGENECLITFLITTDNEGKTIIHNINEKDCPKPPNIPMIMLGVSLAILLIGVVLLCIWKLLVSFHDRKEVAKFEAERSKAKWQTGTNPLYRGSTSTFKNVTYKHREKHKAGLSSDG

Binder | percent of cells shifted [1] | percent of cells shifted [2] | Geometric Mean Shift (arbitrary units) [3]
sc 133 (antibody, V domains shown) VH: QVQLVQSGAEVKKPGASVKVSCKASGYTFTGYYMHWVRQAPGQGLEWMGWINPKSGDTNYAQKFQGRVTLTRDTSTSTAYMELSRLRSDDTAVYYCARRLDVWGQGTTVTVSS VL: QSVLTQPPSVSAAPGQKVTISCSGSSSNIGNNYVSWYQQLPGTAPKLLIYDNNKRPSGIPDRFSGSKSGTSATLGITGLQTGDEADYYCGTWNSSLSAGYVFGTGTKVTV | 10% | – | –
sc 264 (antibody, V domains shown) VH: QVQLQESGPGLVKPSQTLSLTCTVSGGSISSGGYYWSWIRQHPGKGLEWIGYIYYSGRTYNNPSLKSRVTISVDTSKNQFSLKLSSVTAADTAVYYCARVATGRGDYHFYAMDVWGQGTTVTVSS VL: SYELTQPSSVSVSPGQTARITCSGDVLAKKSARWFHQKPGQAPVLVIYKDSERPSGIPERFSGSSSGTTVTLTISGAQVEDEAAYYCYSAADNNLVFGGGTKLTVL | – | 63% | 160
